In article PMC4215112 (Clinical and Experimental Allergy, 2014):
Each block holds one binder with its values, some of them ahead of it.

Legend:
[1] = biological target: T1, Bet v 1 (isoform not stated for the experiment) (birch, UniProt P15494); assay: ELISA; inhibition ELISA: binding of scFv-Fcε to immobilized Bet v 1 in the presence of the identified peptides in soluble form; details: one partner purified
T1 construct: also called immobilized Bet v 1

Recombinant Aln g 1.0101 = biological target: T2, Recombinant Aln g 1.0101 (Alnus glutinosa, isoform Aln g 1.0101, UniProt P38948); assay: ELISA; allergens coated at 5 μg/mL in PBS; scFv-Fcε from HEK293 supernatant detected with HRP anti-IgE antiserum; duplicates; details: one partner purified
T2 construct: By its allergen name from Alnus glutinosa (alder); source: bought: Biomay (Vienna, Austria), recombinant
T2 sequence (P38948 whole entry, looked up, canonical isoform): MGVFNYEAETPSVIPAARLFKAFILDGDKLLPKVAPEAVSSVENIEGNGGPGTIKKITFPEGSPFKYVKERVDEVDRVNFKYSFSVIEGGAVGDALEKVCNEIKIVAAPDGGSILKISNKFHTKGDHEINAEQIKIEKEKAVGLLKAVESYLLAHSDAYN

binding result [1]: binds | binding result (Recombinant Aln g 1.0101): no binding
B1: M0418 scFv-Fcε fusion protein (Fc fusion, human)
VH: QVQLVQSGAEVKKPGESLKISCKGSEYSFPNYWIAWVRQMPGKGLEWMGMIYPGDSDTRYSPSFQGQVNISADKSSRTAFLEWSSLKASDSATYFCARLGGQLWNSYYYYYYMDVWGKGTTVTVSS
VL: SYELTQPPSASGTPGQRVTISCSGSSSNIGGNTVNWYQQVPGTAPRLLIYKNNQRPSGVPDRFSGSKSGTSASLAISGLRSEDEADYYCEAWDGGLRGGVFGGGTKLTVL
notes: as the VH of m14; (Gly4Ser)3 linker as told for the M0418 scFv construct, written out from the printed formula; as the VL of m14; also called the M0418 construct; IgE clone M0418; source: HEK293, transfected, in filtered supernatant; not shown: Fc (human IgE, second, third and fourth constant domains, CHε2-4), C-terminal, kept

binding result [1]: binds
B2: B14 scFv-Fcε fusion protein (Fc fusion, human)
VH: EVQLVQSGAEVKKPGESLKISCKGSEYSFPNYWIAWVRQMPGKGLEWMGMIYPGDSDTRYSPSFQGQVNISADKSSRTAFLEWSSLKASDSATYFCARLGGQLWNSYYYYYMDVWGKGTTVTVSS
VL: QSVLTQPPSVSVSPGQTARITCSGDKLGNKYAAWYQQKPGQSPVLVIYQDSKRPSGIPERFSGSNSGNTATLTISGTQAMDEADYYCQAWDSSTFYVFGTGTKLTVL
notes: as the VH of m13; as the VL of m13; also called B14 scFv-CHε2-4 fusion protein; source: HEK293, transfected, in filtered supernatant; not shown: Fc (human IgE, second, third and fourth constant domains, CHε2-4), C-terminal, kept

binding result [1]: binds
B3: B13 scFv-Fcε fusion protein (Fc fusion)
VH: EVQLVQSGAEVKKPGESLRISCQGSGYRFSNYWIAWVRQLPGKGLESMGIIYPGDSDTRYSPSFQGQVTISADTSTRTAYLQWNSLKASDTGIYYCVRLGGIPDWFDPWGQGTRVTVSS
VL: SYELTQPPSVSGSPGQSVTISCTGTSSDVGGYNLVSWYQQHPGKAPRLMIYEDTKRPSGVSHRFSGSKSGNTASLTISGLQAEDEADYYCYSYATGRPSRLFGGGTKLTVL
notes: as the VH of m12; as the VL of m12; also called B13 scFv-CHε2-4 fusion protein; source: HEK293, transfected, in filtered supernatant; not shown: Fc (human IgE, second, third and fourth constant domains, CHε2-4), C-terminal, kept
